Patent publication US12365732 (23ANDME, dated 2025)
Positions count from the first letter of the chain named. Names may count otherwise.

T1: hu-CD96 isoform 2 on CHO cells (human, UniProt P40200 22-585)
T1 construct: also called CHO-CD96 (isoform 2); CD96-CHOs
T1 sequence: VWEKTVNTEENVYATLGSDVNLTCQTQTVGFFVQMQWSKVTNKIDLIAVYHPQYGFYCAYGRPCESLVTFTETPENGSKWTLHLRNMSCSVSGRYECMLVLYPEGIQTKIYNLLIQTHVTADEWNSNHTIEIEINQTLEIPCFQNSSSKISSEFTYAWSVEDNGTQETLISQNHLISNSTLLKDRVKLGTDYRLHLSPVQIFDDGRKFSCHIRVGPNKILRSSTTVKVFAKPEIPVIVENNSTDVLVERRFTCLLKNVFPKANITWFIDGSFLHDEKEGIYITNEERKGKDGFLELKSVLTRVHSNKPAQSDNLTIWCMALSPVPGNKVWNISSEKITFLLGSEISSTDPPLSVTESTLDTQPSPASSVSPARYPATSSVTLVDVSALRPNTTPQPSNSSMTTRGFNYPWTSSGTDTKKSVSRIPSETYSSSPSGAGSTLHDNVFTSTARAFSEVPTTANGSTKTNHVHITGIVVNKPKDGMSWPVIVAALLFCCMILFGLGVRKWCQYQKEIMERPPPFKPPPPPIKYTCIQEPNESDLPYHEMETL

T2: recombinant hu-CD96 (M1-M503-polyHis) (human, UniProt P40200 22-519)
T2 construct: also called hu-CD96-his
T2 sequence: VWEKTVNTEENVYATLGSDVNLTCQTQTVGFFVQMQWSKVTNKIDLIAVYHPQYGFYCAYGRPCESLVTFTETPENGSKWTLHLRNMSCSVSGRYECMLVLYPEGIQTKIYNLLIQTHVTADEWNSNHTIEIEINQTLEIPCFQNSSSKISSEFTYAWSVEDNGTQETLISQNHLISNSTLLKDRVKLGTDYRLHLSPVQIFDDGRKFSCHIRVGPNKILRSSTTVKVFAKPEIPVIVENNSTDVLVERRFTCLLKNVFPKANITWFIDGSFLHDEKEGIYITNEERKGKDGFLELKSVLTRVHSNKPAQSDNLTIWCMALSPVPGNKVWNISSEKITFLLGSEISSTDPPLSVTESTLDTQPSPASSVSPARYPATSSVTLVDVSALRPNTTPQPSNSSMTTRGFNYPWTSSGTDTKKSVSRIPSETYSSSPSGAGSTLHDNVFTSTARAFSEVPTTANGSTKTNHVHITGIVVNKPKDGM

B1: h10G1 IgG (humanized 10G1) (antibody, V domains shown)
VH: EIQLVQSGSELKKPGASVKVSCKASGYPFTTYGMSWVRQAPGQGLEWMGWINTDSGVPTYADDFKGRFVFSLDTSVSTAYLQISSLKAEDTAVYFCARNIYYGWGNFDYWGQGTLVTVSS
VL: EIVMTQSPDFQSVTPKEKVTITCRASQDIYRNLHWYQQKPDQTPKLLIKHASDSISGIPSRFSGSGSGTDFTLTINSLEAEDAAAYYCLQGYSMPYTFGGGTKVEIKG
notes: human IgG1 N297G
B2: mAb1.v7.NGS9 IgG (antibody, V domains shown)
VH: EVQLVQSGAEVKKPGASVKVSCKASGFTFTNNFMHWVRQAPGQGLEWIGMIHANSGITNINEKFKNRVTMTTDTSTSTAYMELRSLRSEDTAVYYCRSDGVYEGYFDYWGQGTLVTVSS
VL: DIQLTQSPSSLSASVGDRVTITCKASQNVGTAIVWYQQKPGKAPKVLIYSASTRYTGVPSRFSGSGSGTDFTLTISSLQPEDFATYYCQQYSSSPLTFGQGTKVEIKG
notes: human IgG1 N297G
B3: mAb1.v7.NGS10 IgG (antibody, V domains shown)
VH: B2 VH with M50F, V101I
VL: B2 VL
notes: human IgG1 N297G
B4: mAb1.v7.NGS11 IgG (antibody, V domains shown)
VH: B2 VH with M50F
VL: B2 VL
notes: human IgG1 N297G
B5: 9H4, purified hybridoma antibody (antibody, V domains shown)
VH: EVQLLETGGGLVKSGGSLKLSCAASGFTFSDYYMYWVRQTPEKRLEWVAAISDDGTYTYYPDSVKGRFTISRDNANNYLYLQMSSLKSEDTAIYYCAKAGSYDYFDVWGAGTTVTVSS
VL: DIVLTQSPASLAVSLGQRAIISCKASQSVTFADTGLMHWYQQKPGQQPKLLIYRASNLEVGVPTRFSGSGSGTDFTLNIHPVEEEDVATYYCQQSREYPWTFGGGTKLEIK
notes: murine hybridoma IgG
B6: 10G1 (clone 10G1.3G8), purified hybridoma antibody (antibody, V domains shown)
VH: QIQLVQSGPELKKPGETVKISCKASGYPFTTYGMSWVKQAPGKGLKWMGWINTDSGVPTYADDFKGRFAFSLETSANTAYLQINSLKNEDAATYFCARNIYYGWGNFDYWGQGTILTVSS
VL: DILMTQSPTTLSVTPGETVSLSCRASQDIYRNLHWYQQKSQGTPRLLIKHASDSISGIPSRFTGSGSGTDFTLSINSVKPEDEGIYYCLQGYSMPYTFGGGTKLEIK
notes: murine hybridoma IgG
B7: 7E5, purified hybridoma antibody (antibody, V domains shown)
VH: QVQLKESGPGLVAPSQSLSIICTVSGFSLTNYGIHWIRQPPGKGLEWLGIIWAGGSTNYNSALMSRLTISKDNSKSQVFLKMNSLQTNDTAIYYCARVSMMGFAYWGQGTLVTVSA
VL: QAVVTQESALTTSPGETVTLTCRSSTGAVTTSNYANWVQEKPDHLFTGLIGGTNNRAPGVPARFSGSLIGDKAALTITGAQTEDEAIYFCSLWYGSHWVFGGGTKLTVL
notes: murine hybridoma IgG

target: T1, hu-CD96 isoform 2 on CHO cells; assay: FACS, CD155-Fc-FLAG 10 nM, Ab 0.8 nM
Description: CHO cells stably expressing isoform 2 of hu-CD96 (Origene, catalog #RC221005) were incubated with anti-CD96 antibodies for 20 minutes at 4° C. The cells were washed, and then incubated with 10 nM human CD155-Fc-FLAG for 30 minutes at 4° C. Cells were washed, and then human CD155-Fc-FLAG binding was detected by incubation with anti-FLAG-APC (Columbia Biosciences, catalog #D3-1718-1MG) for 20 minutes at 4° C. Cell binding was analyzed by flow cytometry with a CytoFLEX (Beckman Coulter). CD155 binding is represented as median fluorescence intensity (MedFI).
As shown in Table 20 (below), the anti-CD96 antibodies, mAb1.v7.NGS8, mAb1.v7.NGS9, mAb1.v7.NGS10, mAb1.v7.NGS11, and h10G1 inhibited soluble hu-CD155 binding to CD96-expressing CHO cells dose-dependently and potently. The antibody NK92.39 (Fuchs et al., 2004; Biolegend catalog #338405) inhibited receptor binding similarly.

Binder | CD155-Fc binding (MedFI)
B1 | 5870 MedFI
B2 | 32200 MedFI
B3 | 23600 MedFI
B4 | 23600 MedFI

target: T2, recombinant hu-CD96 (M1-M503-polyHis); assay: ELISA, blocks hu-CD96-his binding to coated CD155-hFc
Description: CD96 binding of purified hybridoma antibodies: The hu-CD96 and cy-CD96 antigen binding ELISA was performed on the purified hybridoma antibodies. Briefly, 96-well MAXISORP® flat bottom plates (Thermo Fisher Scientific, Waltham, MA; Cat #439454) were coated overnight at 4° C. with 0.5 µg/mL of hu-CD96D1 D3-hFc and cynomolgus monkey CD96D1 D3-hFc in PBS. After removing the coating solution, unspecific binding was blocked by PBS containing 1% bovine serum albumin (blocking buffer) and incubation at room temperature for one hour. Plates were then washed three times with PBS and 0.05% TWEEN®-20 (wash buffer). Serial dilution of purified antibodies in PBS containing 0.5% BSA and 0.05% Tween 20 (ELISA buffer) was added to individual wells followed by incubation at room temperature for one hour with agitation. Plates were washed three times with wash buffer, then 100 µL/well of anti-mouse IgG-HRP (Thermo Fisher Scientific, Waltham, MA; Cat #626520) in ELISA buffer was added. […] Enzymatic color development was stopped with 50 µL/well of TMB stop solution (VWR/Avantor, Radnor, PA, USA; Cat #95059-200). Plates were analyzed with a SpectraMax i3X plate reader (Molecular Devices LLC, San Jose, CA, USA) at 450 nm.
CD155 receptor blocking of purified hybridoma antibodies: Human CD155 blocking ELISA was performed on purified hybridoma antibodies following the same protocol as described for CD96 (above), except that serial dilution of purified antibodies 50 µL/well (starting at 1 µM, 1:5 dilution) in assay buffer was added into the reaction.

Binder | IC50
B5 | 2.23 nM
B6 | 2.59 nM
B7 | 2.15 nM
